In one experiment the test system is NOXA1. Particulars: COS cells; cited from earlier work.
The subject of another experiment is SH3 domain of NOXA1. Particulars: GST pull-downs; cited from earlier work. The source says:
To gain further insight into the molecular basis of complex formation between these two proteins we measured binding of the human and mouse NOXA1-SH3 ...

The next experiment deals with murine p22^phoxC. The experiment can be described thus: ITC, binding to mouse p22phox cytoplasmic domain. Here is the method: Complex formation between NOXO1, NOXA1 and p22^phox fragments or peptides were measured by isothermal titration calorimetry using a MicroCal VP-ITC calorimeter (MicroCal Inc., Northampton, USA). All proteins were dialysed against ITC buffer (150 mM NaCl, 1 mM DTT and 50 mM HEPES, pH 7.4) and performed at 18°C. All peptides were dissolved in ITC buffer. Typically, 20–40 µM of protein in the cell was titrated by stepwise injections of a total of 200–300 µM of the ligand. Heats of dilution were determined by titrating protein or peptide into ITC buffer and subtracted from the raw ITC data prior to analysis with the software, Origin version 7.0, assuming a single-site binding model. Data were averaged over three to five experiments.

Another experiment has as its target p67^phox. The settings on record: cited from earlier work. The source says: The phagocytic oxidase is still the best characterized member of this protein family and consists of a heterodimeric flavocytochrome (containing NOX2 and p22^phox) that makes up the catalytic core of the enzyme plus the cytosolic regulatory subunits p40^phox, p47^phox and p67^phox and the small GTPase Rac, [16]–[18]. Because excessive ROS production is cytotoxic and can induce a number of pathological processes, complicated regulatory mechanisms have evolved that tightly control the activity of the phagocytic oxidase. […] To gain further insight into the molecular basis of complex formation between these two proteins we measured binding of the human and mouse NOXA1-SH3 ... || In the phagocytic oxidase the p47^phox-p67^phox interaction is unusually strong (Kd of 20 nM), [26], due to the presence of two protein interfaces: contacts are made via the conserved PxxPxR motif (at amino acids 363–368), but also via an additional surface composed of residues 369–390 of p47^phox, which fold into a helix-turn-helix (HTH) motif and pack against β-sheets 2, 3 and 4 of SH3B p67^phox. Removal of this additional binding motif reduces the affinity for p67^phox to 20 µM.

Results on three molecules are retold here after paper PMC2864300, “Regulation of NOXO1 Activity through Reversible Interactions with p22^phox and NOXA1” (PLoS ONE, 2010).

Where two headings read alike, the source gives them in different places.

B1: NOXO1: NOX organizing protein 1 (protein, UniProt Q8NFA2 1-376, looked up)
NADPH oxidase organizer 1: MAGPRYPVSVQGAALVQIKRLQTFAFSVRWSDGSDTFVRRSWDEFRQLKKTLKETFPVEAGLLRRSDRVLPKLLGQASLDAPLLGRVGRTSRGLARLQLLETYSRRLLATAERVARSPTITGFFAPQPLDLEPALPPGSRVILPTPEEQPLSRAAGRLSIHSLEAQSLRCLQPFCTQDTRDRPFQAQAQESLDVLLRHPSGWWLVENEDRQTAWFPAPYLEEAAPGQGREGGPSLGSSGPQFCASRAYESSRADELSVPAGARVRVLETSDRGWWLCRYGDRAGLLPAVLLRPEGLGALLSGTGFRGGDDPAGEARGFPEPSQATAPPPTVPTRPSPGAIQSRCCTVTRRALERRPRRQGRPRGCVDSVPHPTTEQ
Consider B1, for which, in the experiment on NOXA1, the “co-immunoprecipitation of NOXO1 and NOXA1” value is recorded as “both proteins could be co-immunopricipitated from COS cells”. Besides, the “binding to the SH3 domain of NOXA1” value in the experiment with SH3 domain of NOXA1 is recorded as “failed to bind the SH3 domain of NOXA1”.

B2: Mouse NOXO1 SH3AB–E: tandem SH3 domains plus the C-terminal portion of NOXO1 (mouse) (protein)
chain: QSIPCVQPFHTLDIRDRPFHTKAQEILDILLRHPSGWWLVENKDQQVAWFPAPYLEEVATCQGQESGLALQGSGRQFCTTQAYEGSRSDELSVPSGARVHVLETSDRGWWLCRYNGRTGLLPAMSLQPEGLGSLLGRPGFPDSAGADKVAEDRTIPPVVPTRPCMSAIQSRCCSITRRALGQEQGTRVPR
modifications: left off: GST, end not stated, cleaved
In the case of B2, the Kd on murine p22^phoxC (ITC, 18°C, 150 mM NaCl, 1 mM DTT, 50 mM HEPES, pH 7.4, mouse p22^phoxC in syringe, NOXO1 construct in cell, averaged over three to five experiments, NB = no binding) worked out at 780 ± 60 nM. The ΔH in the experiment on murine p22^phoxC (ITC, 18°C, pH 7.4, mouse p22^phoxC in syringe, NB = no binding) is -7.1 ± 0.05 kcal/mol. In addition, in the experiment on murine p22^phoxC (mouse SH3AB–E in comparison to the tandem SH3 domains), the “fold weakening of binding to p22^phox” value is on record as “around 10 -fold”.

B3: p47^phox: cytosolic regulatory subunit of the phagocytic NADPH oxidase (protein, UniProt P14598 1-390, looked up)
Neutrophil cytosol factor 1: MGDTFIRHIALLGFEKRFVPSQHYVYMFLVKWQDLSEKVVYRRFTEIYEFHKTLKEMFPIEAGAINPENRIIPHLPAPKWFDGQRAAENRQGTLTEYCSTLMSLPTKISRCPHLLDFFKVRPDDLKLPTDNQTKKPETYLMPKDGKSTATDITGPIILQTYRAIANYEKTSGSEMALSTGDVVEVVEKSESGWWFCQMKAKRGWIPASFLEPLDSPDETEDPEPNYAGEPYVAIKAYTAVEGDEVSLLEGEAVEVIHKLLDGWWVIRKDDVTGYFPSMYLQKSGQDVSQAQRQIKRGAPPRRSSIRNAHSIHQRSRKRLSQDAYRRNSVRFLQQRRRQARPGPQSPGSPLEEERQTQRSKPQPAVPPRPSADLILNRCSESTKRKLASAV
In the case of B3, the Kd on p67^phox (additional binding motif (residues 369–390 of p47^phox) removed, ref [25], [26], read-out: affinity for p67^phox after removal of additional binding motif) was 20000 nM; at p67^phox (interaction with C-terminal SH3 domain of p67^phox, ref [25]–[27], read-out: affinity for p67^phox) it was 20 nM.
